In patent publication US20260001928A1 (CORTERIA PHARMACEUTICALS, priority 2022, published 2026):
*1 amine or outer side, *2 acyl side, *3 side chain or, on linkers, in order; H or OH if unused. Where no end group is shown, it is not given here. Side-chain parts run from the residue outwards. [ ]: non-standard residue; d: D form. The star is where a group is joined. C18 diacid = O=C(O)CCCCCCCCCCCCCCCCC(=O)*; γGlu = O=C(O)[C@H](CCC(=O)[*:2])N[*:1]; NMeI = CC[C@H](C)[C@H](NC)C(=O)O; αMeL = CC(C)C[C@](C)(N)C(=O)O; Pentanoyl = CCCCC(=O)*; AEEA = NCCOCCOCC(=O)O; Aib = CC(C)(N)C(=O)O

T1: CRF1R receptor (UniProt P34998 24-415, limits assumed)
T1 sequence (looked up): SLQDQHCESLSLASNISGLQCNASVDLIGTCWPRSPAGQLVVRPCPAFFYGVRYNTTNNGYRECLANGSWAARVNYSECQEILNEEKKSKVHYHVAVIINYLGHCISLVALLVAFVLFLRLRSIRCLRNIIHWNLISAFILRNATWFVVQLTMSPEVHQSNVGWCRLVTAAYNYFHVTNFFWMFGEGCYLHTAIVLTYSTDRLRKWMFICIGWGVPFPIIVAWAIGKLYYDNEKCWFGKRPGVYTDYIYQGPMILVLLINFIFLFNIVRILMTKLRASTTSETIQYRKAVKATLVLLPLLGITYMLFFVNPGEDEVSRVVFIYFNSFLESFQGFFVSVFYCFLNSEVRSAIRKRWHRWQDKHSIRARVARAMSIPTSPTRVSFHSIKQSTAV

B1: SEQ ID NO 111 (peptide)
peptide: Ac-IVLSLD[dV]PIK[αMeL]K([AEEA-AEEA-γGlu-C18 diacid])KILLEQEKQKKQREQAETNVQILAQV-NH2
SMILES: CC[C@H](C)[C@H](NC(C)=O)C(=O)N[C@H](C(=O)N[C@@H](CC(C)C)C(=O)N[C@@H](CO)C(=O)N[C@@H](CC(C)C)C(=O)N[C@@H](CC(=O)O)C(=O)N[C@@H](C(=O)N1CCC[C@H]1C(=O)N[C@H](C(=O)N[C@@H](CCCCN)C(=O)N[C@@](C)(CC(C)C)C(=O)N[C@@H](CCCCNC(=O)COCCOCCNC(=O)COCCOCCNC(=O)CC[C@H](NC(=O)CCCCCCCCCCCCCCCCC(=O)O)C(=O)O)C(=O)N[C@@H](CCCCN)C(=O)N[C@H](C(=O)N[C@@H](CC(C)C)C(=O)N[C@@H](CC(C)C)C(=O)N[C@@H](CCC(=O)O)C(=O)N[C@@H](CCC(N)=O)C(=O)N[C@@H](CCC(=O)O)C(=O)N[C@@H](CCCCN)C(=O)N[C@@H](CCC(N)=O)C(=O)N[C@@H](CCCCN)C(=O)N[C@@H](CCCCN)C(=O)N[C@@H](CCC(N)=O)C(=O)N[C@@H](CCCNC(=N)N)C(=O)N[C@@H](CCC(=O)O)C(=O)N[C@@H](CCC(N)=O)C(=O)N[C@@H](C)C(=O)N[C@@H](CCC(=O)O)C(=O)N[C@H](C(=O)N[C@@H](CC(N)=O)C(=O)N[C@H](C(=O)N[C@@H](CCC(N)=O)C(=O)N[C@H](C(=O)N[C@@H](CC(C)C)C(=O)N[C@@H](C)C(=O)N[C@@H](CCC(N)=O)C(=O)N[C@H](C(N)=O)C(C)C)[C@@H](C)CC)C(C)C)[C@@H](C)O)[C@@H](C)CC)[C@@H](C)CC)C(C)C)C(C)C
B2: SEQ ID NO 27 (peptide)
peptide: Ac-IVLSLD[dV]PIKLK([AEEA-AEEA-γGlu-γGlu-C18 diacid])Q[Aib]LLKQERQKKQREQAEKNVQILEQV-NH2
SMILES: CC[C@H](C)[C@H](NC(C)=O)C(=O)N[C@H](C(=O)N[C@@H](CC(C)C)C(=O)N[C@@H](CO)C(=O)N[C@@H](CC(C)C)C(=O)N[C@@H](CC(=O)O)C(=O)N[C@@H](C(=O)N1CCC[C@H]1C(=O)N[C@H](C(=O)N[C@@H](CCCCN)C(=O)N[C@@H](CC(C)C)C(=O)N[C@@H](CCCCNC(=O)COCCOCCNC(=O)COCCOCCNC(=O)CC[C@H](NC(=O)CC[C@H](NC(=O)CCCCCCCCCCCCCCCCC(=O)O)C(=O)O)C(=O)O)C(=O)N[C@@H](CCC(N)=O)C(=O)NC(C)(C)C(=O)N[C@@H](CC(C)C)C(=O)N[C@@H](CC(C)C)C(=O)N[C@@H](CCCCN)C(=O)N[C@@H](CCC(N)=O)C(=O)N[C@@H](CCC(=O)O)C(=O)N[C@@H](CCCNC(=N)N)C(=O)N[C@@H](CCC(N)=O)C(=O)N[C@@H](CCCCN)C(=O)N[C@@H](CCCCN)C(=O)N[C@@H](CCC(N)=O)C(=O)N[C@@H](CCCNC(=N)N)C(=O)N[C@@H](CCC(=O)O)C(=O)N[C@@H](CCC(N)=O)C(=O)N[C@@H](C)C(=O)N[C@@H](CCC(=O)O)C(=O)N[C@@H](CCCCN)C(=O)N[C@@H](CC(N)=O)C(=O)N[C@H](C(=O)N[C@@H](CCC(N)=O)C(=O)N[C@H](C(=O)N[C@@H](CC(C)C)C(=O)N[C@@H](CCC(=O)O)C(=O)N[C@@H](CCC(N)=O)C(=O)N[C@H](C(N)=O)C(C)C)[C@@H](C)CC)C(C)C)[C@@H](C)CC)C(C)C)C(C)C
B3: SEQ ID NO 28 (peptide)
peptide: [NMeI]VLSLD[dV]PIKLK([AEEA-AEEA-γGlu-γGlu-C18 diacid])Q[Aib]LLKQERQKKQREQAEKNVQILEQV-NH2
modifications: N-terminus assumed
SMILES: CC[C@H](C)[C@H](NC)C(=O)N[C@H](C(=O)N[C@@H](CC(C)C)C(=O)N[C@@H](CO)C(=O)N[C@@H](CC(C)C)C(=O)N[C@@H](CC(=O)O)C(=O)N[C@@H](C(=O)N1CCC[C@H]1C(=O)N[C@H](C(=O)N[C@@H](CCCCN)C(=O)N[C@@H](CC(C)C)C(=O)N[C@@H](CCCCNC(=O)COCCOCCNC(=O)COCCOCCNC(=O)CC[C@H](NC(=O)CC[C@H](NC(=O)CCCCCCCCCCCCCCCCC(=O)O)C(=O)O)C(=O)O)C(=O)N[C@@H](CCC(N)=O)C(=O)NC(C)(C)C(=O)N[C@@H](CC(C)C)C(=O)N[C@@H](CC(C)C)C(=O)N[C@@H](CCCCN)C(=O)N[C@@H](CCC(N)=O)C(=O)N[C@@H](CCC(=O)O)C(=O)N[C@@H](CCCNC(=N)N)C(=O)N[C@@H](CCC(N)=O)C(=O)N[C@@H](CCCCN)C(=O)N[C@@H](CCCCN)C(=O)N[C@@H](CCC(N)=O)C(=O)N[C@@H](CCCNC(=N)N)C(=O)N[C@@H](CCC(=O)O)C(=O)N[C@@H](CCC(N)=O)C(=O)N[C@@H](C)C(=O)N[C@@H](CCC(=O)O)C(=O)N[C@@H](CCCCN)C(=O)N[C@@H](CC(N)=O)C(=O)N[C@H](C(=O)N[C@@H](CCC(N)=O)C(=O)N[C@H](C(=O)N[C@@H](CC(C)C)C(=O)N[C@@H](CCC(=O)O)C(=O)N[C@@H](CCC(N)=O)C(=O)N[C@H](C(N)=O)C(C)C)[C@@H](C)CC)C(C)C)[C@@H](C)CC)C(C)C)C(C)C
B4: SEQ ID NO 29 (peptide)
peptide: Pentanoyl-VLSLD[dV]PIKLK([AEEA-AEEA-γGlu-γGlu-C18 diacid])Q[Aib]LLKQERQKKQREQAEKNVQILEQV-NH2
SMILES: CCCCC(=O)N[C@H](C(=O)N[C@@H](CC(C)C)C(=O)N[C@@H](CO)C(=O)N[C@@H](CC(C)C)C(=O)N[C@@H](CC(=O)O)C(=O)N[C@@H](C(=O)N1CCC[C@H]1C(=O)N[C@H](C(=O)N[C@@H](CCCCN)C(=O)N[C@@H](CC(C)C)C(=O)N[C@@H](CCCCNC(=O)COCCOCCNC(=O)COCCOCCNC(=O)CC[C@H](NC(=O)CC[C@H](NC(=O)CCCCCCCCCCCCCCCCC(=O)O)C(=O)O)C(=O)O)C(=O)N[C@@H](CCC(N)=O)C(=O)NC(C)(C)C(=O)N[C@@H](CC(C)C)C(=O)N[C@@H](CC(C)C)C(=O)N[C@@H](CCCCN)C(=O)N[C@@H](CCC(N)=O)C(=O)N[C@@H](CCC(=O)O)C(=O)N[C@@H](CCCNC(=N)N)C(=O)N[C@@H](CCC(N)=O)C(=O)N[C@@H](CCCCN)C(=O)N[C@@H](CCCCN)C(=O)N[C@@H](CCC(N)=O)C(=O)N[C@@H](CCCNC(=N)N)C(=O)N[C@@H](CCC(=O)O)C(=O)N[C@@H](CCC(N)=O)C(=O)N[C@@H](C)C(=O)N[C@@H](CCC(=O)O)C(=O)N[C@@H](CCCCN)C(=O)N[C@@H](CC(N)=O)C(=O)N[C@H](C(=O)N[C@@H](CCC(N)=O)C(=O)N[C@H](C(=O)N[C@@H](CC(C)C)C(=O)N[C@@H](CCC(=O)O)C(=O)N[C@@H](CCC(N)=O)C(=O)N[C@H](C(N)=O)C(C)C)[C@@H](C)CC)C(C)C)[C@@H](C)CC)C(C)C)C(C)C

These binders were tested against T1, CRF1R receptor (assay: cell-based or functional assay).

Binder	Emax (% I) [%]	EC50 [nM]
B1	-3	–
B2	7	> 250
B3	6	> 250
B4	6	> 250

These binders were tested against human corticotropin-releasing factor 2a (CRF2a receptor) (human), Q13324 (assay: cell-based or functional assay).
Sequence of human corticotropin-releasing factor 2a (CRF2a receptor) (human), Q13324 (Q13324 20-411): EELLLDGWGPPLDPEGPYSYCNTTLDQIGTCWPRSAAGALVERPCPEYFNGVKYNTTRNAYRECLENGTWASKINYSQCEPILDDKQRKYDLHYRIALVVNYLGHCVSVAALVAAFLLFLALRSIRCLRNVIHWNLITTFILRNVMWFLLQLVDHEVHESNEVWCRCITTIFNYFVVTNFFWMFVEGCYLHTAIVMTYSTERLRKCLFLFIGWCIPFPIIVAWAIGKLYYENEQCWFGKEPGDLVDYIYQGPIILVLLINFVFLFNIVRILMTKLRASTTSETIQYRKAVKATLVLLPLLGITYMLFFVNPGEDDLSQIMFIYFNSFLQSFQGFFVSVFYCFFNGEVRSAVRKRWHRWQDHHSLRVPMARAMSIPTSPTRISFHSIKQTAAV

Binder	EC50 [nM] (cAMP)
B1	2.58
B2	16.9
B3	2.2
B4	37.2
